Measured values from patent US20040024185A1.

Experiments:
Experiment in all cases: cell-based or functional assay
[1] = target: T1, NF-ATp expressed from an NF-ATp expression plasmid in HepG2 cells
T1 sequence (Q13469 1-925, species assumed, looked up): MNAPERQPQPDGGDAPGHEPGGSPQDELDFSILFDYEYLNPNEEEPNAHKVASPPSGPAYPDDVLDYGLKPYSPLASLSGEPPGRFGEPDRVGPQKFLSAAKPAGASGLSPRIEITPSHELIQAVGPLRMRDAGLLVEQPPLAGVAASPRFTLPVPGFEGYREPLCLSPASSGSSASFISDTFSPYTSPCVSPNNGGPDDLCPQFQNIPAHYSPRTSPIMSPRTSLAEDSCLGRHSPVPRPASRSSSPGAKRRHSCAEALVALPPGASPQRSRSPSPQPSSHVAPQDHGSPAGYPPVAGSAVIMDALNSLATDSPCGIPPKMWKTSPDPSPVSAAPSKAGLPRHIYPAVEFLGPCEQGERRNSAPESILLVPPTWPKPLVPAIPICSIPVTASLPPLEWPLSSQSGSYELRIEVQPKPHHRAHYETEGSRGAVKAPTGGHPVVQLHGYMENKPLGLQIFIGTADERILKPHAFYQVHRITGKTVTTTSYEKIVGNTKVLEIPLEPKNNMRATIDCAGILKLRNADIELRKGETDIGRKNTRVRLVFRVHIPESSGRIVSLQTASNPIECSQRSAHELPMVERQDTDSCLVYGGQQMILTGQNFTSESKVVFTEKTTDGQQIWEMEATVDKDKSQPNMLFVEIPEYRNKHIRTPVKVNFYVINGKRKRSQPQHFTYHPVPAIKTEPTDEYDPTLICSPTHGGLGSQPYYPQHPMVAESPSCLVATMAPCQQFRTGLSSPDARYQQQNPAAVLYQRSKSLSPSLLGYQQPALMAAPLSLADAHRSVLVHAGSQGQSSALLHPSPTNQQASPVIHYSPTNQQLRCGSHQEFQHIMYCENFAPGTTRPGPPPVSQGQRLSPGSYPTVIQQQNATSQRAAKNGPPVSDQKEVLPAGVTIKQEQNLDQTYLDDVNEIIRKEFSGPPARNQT

[2] = target: T2, NF-AT3 expressed from an expression construct in HepG2 cells
T2 sequence (Q14934 1-902, species assumed, looked up): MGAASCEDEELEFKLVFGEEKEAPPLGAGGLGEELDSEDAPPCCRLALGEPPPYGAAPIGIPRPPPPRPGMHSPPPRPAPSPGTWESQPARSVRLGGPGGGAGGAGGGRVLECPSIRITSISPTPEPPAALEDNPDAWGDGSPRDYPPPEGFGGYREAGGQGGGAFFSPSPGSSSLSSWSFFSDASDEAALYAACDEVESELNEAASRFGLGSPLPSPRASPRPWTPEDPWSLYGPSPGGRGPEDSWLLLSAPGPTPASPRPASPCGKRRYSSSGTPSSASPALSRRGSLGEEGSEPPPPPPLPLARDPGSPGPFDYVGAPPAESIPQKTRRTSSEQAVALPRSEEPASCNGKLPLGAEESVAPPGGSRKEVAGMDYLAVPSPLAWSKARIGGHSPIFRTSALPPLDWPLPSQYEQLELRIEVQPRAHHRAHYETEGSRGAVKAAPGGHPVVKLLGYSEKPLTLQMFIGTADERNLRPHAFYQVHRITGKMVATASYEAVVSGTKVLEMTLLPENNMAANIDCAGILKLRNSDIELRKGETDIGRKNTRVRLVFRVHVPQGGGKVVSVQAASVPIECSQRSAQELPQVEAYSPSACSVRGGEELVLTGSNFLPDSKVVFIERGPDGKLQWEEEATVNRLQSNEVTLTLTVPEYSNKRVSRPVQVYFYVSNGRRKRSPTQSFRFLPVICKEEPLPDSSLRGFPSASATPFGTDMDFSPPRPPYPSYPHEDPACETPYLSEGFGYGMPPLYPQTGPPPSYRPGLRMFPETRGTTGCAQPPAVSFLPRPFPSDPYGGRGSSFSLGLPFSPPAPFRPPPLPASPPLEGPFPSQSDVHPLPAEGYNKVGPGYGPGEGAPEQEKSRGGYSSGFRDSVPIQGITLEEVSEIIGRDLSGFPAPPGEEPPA

[3] = target: T3, NF-ATc expressed from an expression construct in HepG2 cells
T3 sequence (O95644 1-943, species assumed, looked up): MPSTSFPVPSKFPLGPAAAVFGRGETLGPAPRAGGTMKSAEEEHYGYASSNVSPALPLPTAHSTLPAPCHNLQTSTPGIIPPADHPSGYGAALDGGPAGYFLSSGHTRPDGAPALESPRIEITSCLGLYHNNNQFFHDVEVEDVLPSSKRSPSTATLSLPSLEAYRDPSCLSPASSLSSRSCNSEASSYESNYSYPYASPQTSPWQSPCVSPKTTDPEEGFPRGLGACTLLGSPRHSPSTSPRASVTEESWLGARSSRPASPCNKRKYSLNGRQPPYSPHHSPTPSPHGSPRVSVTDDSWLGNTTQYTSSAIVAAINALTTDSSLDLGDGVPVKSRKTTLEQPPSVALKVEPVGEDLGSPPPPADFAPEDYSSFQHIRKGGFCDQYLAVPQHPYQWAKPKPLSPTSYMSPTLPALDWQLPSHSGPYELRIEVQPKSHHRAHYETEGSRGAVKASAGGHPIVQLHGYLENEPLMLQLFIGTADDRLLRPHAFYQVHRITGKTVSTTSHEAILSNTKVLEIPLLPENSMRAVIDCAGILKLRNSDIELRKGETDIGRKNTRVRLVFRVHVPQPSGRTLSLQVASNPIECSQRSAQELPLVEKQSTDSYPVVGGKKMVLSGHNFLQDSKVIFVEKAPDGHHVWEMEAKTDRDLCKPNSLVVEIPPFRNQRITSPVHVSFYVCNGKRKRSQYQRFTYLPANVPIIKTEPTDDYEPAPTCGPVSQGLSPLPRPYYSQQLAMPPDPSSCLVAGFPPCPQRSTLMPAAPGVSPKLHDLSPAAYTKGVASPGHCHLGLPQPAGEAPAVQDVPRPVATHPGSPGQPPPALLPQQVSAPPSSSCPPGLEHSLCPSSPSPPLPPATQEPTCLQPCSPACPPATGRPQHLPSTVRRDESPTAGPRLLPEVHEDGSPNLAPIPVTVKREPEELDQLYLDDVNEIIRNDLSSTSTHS

[4] = target: T4, NF-AT4 expressed from an expression construct
T4 sequence (Q12968 2-1075, species assumed, looked up): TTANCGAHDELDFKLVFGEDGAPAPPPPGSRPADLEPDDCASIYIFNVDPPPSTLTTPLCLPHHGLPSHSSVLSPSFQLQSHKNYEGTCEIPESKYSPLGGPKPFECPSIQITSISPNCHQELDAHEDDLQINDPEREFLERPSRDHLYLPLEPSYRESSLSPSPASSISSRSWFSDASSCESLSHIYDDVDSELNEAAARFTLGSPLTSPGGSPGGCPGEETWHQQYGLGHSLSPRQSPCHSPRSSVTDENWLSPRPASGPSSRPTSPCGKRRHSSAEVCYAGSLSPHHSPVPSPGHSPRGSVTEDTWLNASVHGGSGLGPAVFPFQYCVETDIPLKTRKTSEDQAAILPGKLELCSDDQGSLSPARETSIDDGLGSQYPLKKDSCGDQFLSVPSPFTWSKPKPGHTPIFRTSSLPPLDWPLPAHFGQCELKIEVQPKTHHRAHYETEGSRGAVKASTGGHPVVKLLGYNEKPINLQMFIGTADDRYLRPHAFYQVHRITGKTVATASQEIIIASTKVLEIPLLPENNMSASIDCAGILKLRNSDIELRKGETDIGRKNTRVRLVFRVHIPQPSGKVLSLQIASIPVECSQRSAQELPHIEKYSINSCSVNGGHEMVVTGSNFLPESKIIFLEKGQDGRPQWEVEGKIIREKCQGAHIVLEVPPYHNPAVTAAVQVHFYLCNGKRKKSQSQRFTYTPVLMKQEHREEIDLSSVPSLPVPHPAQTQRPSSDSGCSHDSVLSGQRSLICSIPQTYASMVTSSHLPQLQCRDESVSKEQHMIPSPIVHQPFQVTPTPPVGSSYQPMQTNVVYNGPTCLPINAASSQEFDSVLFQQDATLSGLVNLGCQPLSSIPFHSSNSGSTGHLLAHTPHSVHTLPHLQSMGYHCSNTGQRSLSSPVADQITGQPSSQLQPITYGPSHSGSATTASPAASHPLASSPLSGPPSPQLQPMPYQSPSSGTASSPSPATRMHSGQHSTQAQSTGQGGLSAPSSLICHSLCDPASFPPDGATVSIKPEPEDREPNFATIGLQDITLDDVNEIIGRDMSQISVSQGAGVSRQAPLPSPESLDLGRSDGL

B1: NIP45 expressed from a NIP45 expression plasmid (protein)
chain: MAEPLRGRGPRSRGGRGARRARGARGRCPRARQSPARLIPDTVLVDLVSDSDEEVLEVADPVEVPVARLPAPAKPEQDSDSDSEGAAEGPAGAPRTLVRRRRRRLLDPGEAPVVPVYSGKVQSSLNLIPDNSSLLKLCPSEPEDEADLTNSGSSPSEDDALPSGSPWRKKLRKKCEKEEKKMEEFPDQDISPLPQPSSRNKSRKHTEALQKLREVNKRLQDLRSCLSPKQHQSPALQSTDDEVVLVEGPVLPQSSRLFTLKIRCRADLVRLPVRMSEPLQNVVDHMANHLGVSPNRILLLFGESELSPTATPSTLKLGVADIIDCVVLASSSEATETSQELRLRVQGKEKHQMLEISLSPDSPLKVLMSHYEEAMGLSGHKLSFFFDGTKLSGKELPADLGLESGDLIEVWG
CAT activity of a 3X NF-AT-CAT reporter in HepG2 cells, relative to NF-ATp alone [1]: 4 to 5 fold | CAT activity of a 3X NF-AT-CAT reporter in HepG2 cells, relative to vector alone [1]: 25 to 30 fold | transactivation of a 3X NF-AT-CAT reporter in HepG2 cells [2]: 3 fold | transactivation of a 3X NF-AT-CAT reporter in HepG2 cells [3]: 4 fold | transactivation of a 3X NF-AT-CAT reporter in HepG2 cells [4]: 2 fold
